The source of these data is publication PMC11853559, “α-Synuclein Iron-Responsive-Element RNA and Iron Regulatory Protein Affinity Is Specifically Reduced by Iron in Parkinson’s Disease”.

Common to all, as to conditions: protein: commercial; hairpin (stem-loop), melted and reannealed
In data set [1] the target is T1, Iron regulatory protein 1 (IRP1) (UniProt P21399 1-889).
T1 sequence: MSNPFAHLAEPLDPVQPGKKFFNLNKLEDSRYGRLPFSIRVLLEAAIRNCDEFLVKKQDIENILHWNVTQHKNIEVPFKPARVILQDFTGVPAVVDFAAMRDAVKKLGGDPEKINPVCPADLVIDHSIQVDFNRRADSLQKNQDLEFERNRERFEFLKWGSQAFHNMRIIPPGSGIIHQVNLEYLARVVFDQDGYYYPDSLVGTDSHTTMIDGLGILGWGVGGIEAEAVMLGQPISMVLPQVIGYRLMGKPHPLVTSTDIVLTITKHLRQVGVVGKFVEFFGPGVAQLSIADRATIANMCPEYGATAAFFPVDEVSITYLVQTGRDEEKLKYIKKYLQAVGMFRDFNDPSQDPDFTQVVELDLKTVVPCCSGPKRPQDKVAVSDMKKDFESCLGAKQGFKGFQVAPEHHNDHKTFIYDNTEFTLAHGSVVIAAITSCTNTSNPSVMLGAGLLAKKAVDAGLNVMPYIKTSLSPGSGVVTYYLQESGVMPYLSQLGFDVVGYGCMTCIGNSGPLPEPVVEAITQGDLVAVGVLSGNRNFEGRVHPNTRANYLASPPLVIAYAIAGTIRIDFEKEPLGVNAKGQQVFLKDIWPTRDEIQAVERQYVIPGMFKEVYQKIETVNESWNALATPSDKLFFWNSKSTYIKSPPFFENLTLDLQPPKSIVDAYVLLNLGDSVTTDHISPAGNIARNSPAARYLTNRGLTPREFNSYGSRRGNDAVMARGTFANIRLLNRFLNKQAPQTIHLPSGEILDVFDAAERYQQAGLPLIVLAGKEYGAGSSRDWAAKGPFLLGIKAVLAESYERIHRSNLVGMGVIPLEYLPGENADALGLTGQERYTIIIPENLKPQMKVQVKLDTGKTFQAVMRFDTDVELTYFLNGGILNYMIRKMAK
The data set is described as follows: fluorescence quenching (intrinsic); 5 °C, no Fe; 20 mM HEPES pH 7.4, 100 mM KCl, 1 mM MgCl2; 50 nM IRP1, 0-200 nM RNA; 15 min; 25 °C (5-30 °C series); Fe2+ 50 uM anaerobic where stated.

Data set [2] addresses T1, Iron regulatory protein 1 (IRP1). As to the kind of experiment: fluorescence quenching (intrinsic); 10 °C, no Fe; 20 mM HEPES pH 7.4, 100 mM KCl, 1 mM MgCl2; 50 nM IRP1, 0-200 nM RNA; 15 min; 25 °C (5-30 °C series); Fe2+ 50 uM anaerobic where stated.
Data set [3] shares this target. The data set is described as follows: fluorescence quenching (intrinsic); 15 °C, no Fe; 20 mM HEPES pH 7.4, 100 mM KCl, 1 mM MgCl2; 50 nM IRP1, 0-200 nM RNA; 15 min; 25 °C (5-30 °C series); Fe2+ 50 uM anaerobic where stated.
Data set [4] shares this target. As to the kind of experiment: fluorescence quenching (intrinsic); 20 °C, no Fe; 20 mM HEPES pH 7.4, 100 mM KCl, 1 mM MgCl2; 50 nM IRP1, 0-200 nM RNA; 15 min; 25 °C (5-30 °C series); Fe2+ 50 uM anaerobic where stated.
Data set [5] shares this target. The data set is described as follows: fluorescence quenching (intrinsic); 25 °C, no Fe; 20 mM HEPES pH 7.4, 100 mM KCl, 1 mM MgCl2; 50 nM IRP1, 0-200 nM RNA; 15 min; 25 °C (5-30 °C series); Fe2+ 50 uM anaerobic where stated.
Data set [6] shares this target. The data set is described as follows: fluorescence quenching (intrinsic); 30 °C, no Fe; 20 mM HEPES pH 7.4, 100 mM KCl, 1 mM MgCl2; 50 nM IRP1, 0-200 nM RNA; 15 min; 25 °C (5-30 °C series); Fe2+ 50 uM anaerobic where stated.
The target is the same in data set [7]. The data set is described as follows: fluorescence quenching, Scatchard; 25 °C, no Fe (abstract gives 21.0); 20 mM HEPES pH 7.4, 100 mM KCl, 1 mM MgCl2; 50 nM IRP1, 0-200 nM RNA; 15 min; 25 °C (5-30 °C series); Fe2+ 50 uM anaerobic where stated.

Consider ACUGGGAGUGGCCAUUCGACGACAGUGUGGUGUAAAGGAAUUCAUUAGCC (structured_RNA) [alpha-Syn IRE RNA (SNCA 5'-UTR)], for which the Kd – broadly, a measure of binding affinity in units of concentration – in data set [1] is 0.0135 ± 0.0006 µM; in data set [2], 0.0219 ± 0.0008 µM; in data set [3], 0.0278 ± 0.0012 µM; in data set [4], 0.0389 ± 0.0015 µM; in data set [5] it was 0.0476 ± 0.0017 µM; in data set [6] it was 0.0638 ± 0.0032 µM. Moreover, the Ka in data set [7] is 20.8 10^6 M-1.
